Laboratory results from US20240101667A1, “METHODS FOR IDENTIFYING LILRB-BLOCKING ANTIBODIES” (THE BOARD OF REGENTS OF THE UNIVERSITY OF TEXAS SYSTEM, priority 2020, published 2024).

What was measured:
MLL-AF9 AML cells = assay: CFU assay of mouse MLL-AF9 AML cells; type: cell-based; settings: for colony formation by MLL-AF9 cells: screen of the high-affinity IgGs
Excerpt: (§1) FIGS. 7A-N. Blocking anti-LILRB3 antibody prevents monocytic AML development. (FIG. 7A) Epitope binning of 30 high-affinity IgGs. (FIG. 7B) CFU assay of mouse MLL-AF9 AML cells in the presence of above IgGs (n=3 independent experiments). (FIG. 7C) Binding affinities of the two IgGs from bin #3. (FIG. 7D) Upper: Schematic of treatment. Lower: Percentages of GFP^+ MLL-AF9 mouse AIL cells in peripheral blood (PB), bone marrow (BM), spleen (SPL), and liver (LV) of mice transplanted with AML cells expressing B3-FL or B3delICD and injected with IgG or anti-LILRB3 #1 N297A (n=3 independent mice). (FIG. 7E) Overall survival of mice transplanted with indicated AML cells as above. (FIG. 7F) CFU assay of MLL-AF9 mouse AML cells expressing B3-FL or B3delICD in the presence of IgG or anti-LILRB3 #1 N297A (n=3 independent experiments) (FIG. 7G) Upper: Schematic of treatment. Recipient mice were injected with mouse IgG or anti-mCD8 to deplete CD8 T cells. Lower: Percentages of GFP^+ MLL-AF9 mouse AML cells in peripheral blood (PB), bone marrow (BM), spleen (SPL), and liver (LV) of mice transplanted with AML cells expressing B3-FL or B3delICD and injected with IgG or anti-LILRB3 #1 LALAPG (n=4 mice). (FIG. 7H) Survival of mice as in panel h (n=4 independent mice). (FIG. 7I) Upper: Schematic of treatment. Lower: Whole-body images of NSG mice transplanted with luciferase-expressing THP-1 cells and treated with IgG or anti-LILRB3 #1 N297A (#1NA). (FIG. 7J) Overall survival of the mice shown in panel h (n=3 independent mice). (FIG. 7K) Upper: Schematic of treatment. Lower: Whole-body images of NSG mice transplanted with luciferase-expressing Molm13 cells, injected with activated T cells, and treated with IgG or #1NA. (FIG. 7L) Luciferase signaling as a function of time in mice treated as described in panel k. (FIG. 7M) Overall survival of mice treated as described in panel k (n=3 independent mice). (FIG. 7N) Analyses of T cells in peripheral blood of mice treated as described in panel 1 at 22 days after Molm13 AML cell transplantation. Upper: Flow cytometry analyses. Lower: Plot of T cell percentages (n=3 independent mice). The data are presented as mean±s.e.m, and p values were calculated by two-tailed t-test except for FIG. 7E, FIG. 7H, FIG. 7J and FIG. 7M by log-rank test.
FIGS. S6A-J. Development of anti-LILRB3 blocking antibodies for suppressing AML development. (FIG. S6a) Upper: Flow chart of strategy for development of fully humanized antibodies against LILRB3. Lower: The identified antibodies were tested in the LILRB3 chimeric receptor reporter cell assay. (FIG. S6b) ELISA results for LILRB3 binders. (FIG. S6c) EC50 values of the anti-LILRB3 antibodies based on ELISA. (FIG. S6d) Affinities of antibodies #32, #33, #67, and #45 to LILRB3 as determined by Octet. (FIG. S6e) Cross-reactivity of the anti-LILRB3 antibodies with LILRAs evaluated with LILRA binding analyses. (FIG. S6f) Cross-reactivity of the anti-LILRB3 antibodies with other LILRBs evaluated with LILRB binding analyses. (FIG. S6g) Interaction with TRAF2 contributes to the effect of LILRB3 on AML development. […] (FIG. S6j) NF-κB signaling target gene expression (measured by qPCR) in THP-1 cells from BM of xenografted NSG mice treated with anti-LILRB3 #1NA or IgG (n=3 individual samples). […]

LILRAs and other LILRBs = assay: Cross-reactivity with LILRAs and other LILRBs (binding analyses); parameters: species or system human; settings: versus LILRAs and other LILRBs
Protocol: FIGS. S6A-J. Development of anti-LILRB3 blocking antibodies for suppressing AML development. (FIG. S6a) Upper: Flow chart of strategy for development of fully humanized antibodies against LILRB3. Lower: The identified antibodies were tested in the LILRB3 chimeric receptor reporter cell assay. (FIG. S6b) ELISA results for LILRB3 binders. (FIG. S6c) EC50 values of the anti-LILRB3 antibodies based on ELISA. (FIG. S6d) Affinities of antibodies #32, #33, #67, and #45 to LILRB3 as determined by Octet. (FIG. S6e) Cross-reactivity of the anti-LILRB3 antibodies with LILRAs evaluated with LILRA binding analyses. (FIG. S6f) Cross-reactivity of the anti-LILRB3 antibodies with other LILRBs evaluated with LILRB binding analyses. (FIG. S6g) Interaction with TRAF2 contributes to the effect of LILRB3 on AML development. CFU assay of MLL-AF9 AML cells expressing wild-type LILRB3 or mutant LILRB3 with mutations disrupting TRAF2 binding (AAA, QEE509-511AAA) or disrupting SHP-1/2 interactions (Y596/626F) in the presence of control or anti-LILRB3 antibodies (n=3 wells). […] (FIG. S6j) NF-κB signaling target gene expression (measured by qPCR) in THP-1 cells from BM of xenografted NSG mice treated with anti-LILRB3 #1NA or IgG (n=3 individual samples). The data are presented as mean±s.e.m, and p values were calculated by two-tailed t-test except for FIG. S6i by log-rank test.

LILRB3 [1] = target: T1, LILRB3 (Homo sapiens, UniProt O75022); assay: Affinity measurement with Octet RED96; type: binding; settings: compared between the two IgGs of bin 3
Protocol: (§2) Affinity measurement and epitope binning: Affinity measurement and epitope binning were done as described previously (Gui et al., 2019). Briefly, antibody affinity was analyzed with the Octet RED96 instrument. Antibody ([…]) was loaded onto the protein A biosensors then exposed to a series of concentrations of recombinant LILRB3 (0.1-200 nmol/L), and background subtraction was used to correct for sensor drift. ForteBio's data analysis software was used to extract association and dissociation rates assuming a 1:1 binding model. The Kd was calculated as the ratio koff/kon. Epitope binning of anti-LILRB3 rabbit antibodies was performed with an Octet RED96 instrument using a classical sandwich epitope binning assay. In these epitope binning assays, primary antibodies (40 μg/ml) were loaded onto protein A biosensors, and remaining Fc-binding sites on the sensor were blocked with a human non-targeting IgG (200 μg/ml). The sensors were then exposed to the 1 μM LILRB3 diluted in 1× kinetics buffer, followed by the secondary antibodies (40 μg/ml). Raw data were processed using ForteBio's Data Analysis Software 7.0. Antibody pairs were assessed for competitive binding. […]

LILRB3 [2] = target: T1, LILRB3; assay: Octet-based epitope binning assay; type: binding; settings: Octet sandwich binning
Protocol: as §2

[3] = test system: MLL-AF9 AML cells expressing B3-FL or B3delICD; assay: Immuno-competent mice transplanted with MLL-AF9 AML cells expressing B3-FL or B3delICD; type: in vivo, mouse; settings: versus IgG
Excerpt: as §1, with “(FIG. 7N) Analyses of T cells in peripheral blood of mice treated as described in panel 1 at 22 days after Molm13 AML cell transplantation. Upper: Flow cytometry analyses. Lower: Plot of T cell percentages (n=3 independent mice).” left out, “test. […]” for “test.”

B1: #1: fully human anti-LILRB3 blocking IgG, epitope bin 3; B3-1 VH SEQ ID NO: 341, VL SEQ ID NO: 395 (antibody, V domains shown)
VH: EVQLVESGGGVVQPGRSLRLSCAASGFTFSSYGMHWVRQAPGKGLEWVAFIRYDGSNKYYADSVKGRFTISRDNSKNTLYLQMNSLRAEDTAVYYCAKAGFSGWYYYGMDVWGQGTMVTVSS
VL: DIVMTQSPSSLSASVGDRLTITCRASQSISTYLNWYQQKPGKAPKLLIYGASSLQSGVPSRFSGSGSGTDFTLTISSLQPEDFATYFCQQSYGLPLTFGGGTKVDIK
modifications: Synthetic antibody
colony formation by MLL-AF9 cells (MLL-AF9 AML cells): blocked colony formation by MLL-AF9 cells
specificity to LILRB3 (LILRAs and other LILRBs): specific to LILRB3
binding affinity (LILRB3 [1]): higher affinity than #26
LILRB3 epitope bin (LILRB3 [2]): third bin

B2: #26: fully human anti-LILRB3 IgG, epitope bin 3; B3-26 VH SEQ ID NO: 353, VL SEQ ID NO: 407 (antibody, V domains shown)
VH: QVQMVESGGGLVKPGGSLRLSCAASGFTFSDHYLSWIRQAPGKGLEWVSYIDLSGSTVYYGDSVKGRFTISRDNARNSVYLQMNSLRAEDTAVYYCARGHYGLDVWGQGTMVTVSS
VL: NIQMTQSPSTLSASVGDRVTISCRASQSIGTWLAWYQQKPGKAPQLLIYKASSLHSGVPSRFSGSGSGTEFTLTISSLQPDDFATYYCQQYNLYSRTFGQGTKVEIK
modifications: Synthetic antibody
colony formation by MLL-AF9 cells (MLL-AF9 AML cells): blocked colony formation by MLL-AF9 cells
specificity to LILRB3 (LILRAs and other LILRBs): specific to LILRB3
LILRB3 epitope bin (LILRB3 [2]): third bin

B3: anti-LILRB3 #6: anti-LILRB3 antibody which cannot inhibit LILRB3 signaling; B3-6 VH SEQ ID NO: 345, VL SEQ ID NO: 399 (antibody, V domains shown)
VH: QVQLQQSGPGLVKPSQTLSLTCAISGDSVSSNSAAWNWIRQSPSRGLEWLGRTYYRSKWYNNYAVSVKSRITINPDTSKNQFSLQLNSVTPEDTAVYYCARALAGIDGFDVWGQGTTVSVSS
VL: AIQLTQSPSSLSASVGDRITITCRASQSISKYLNWYQQKPGEAPKLLIYAASSLQSGVPSRFSGSGSGTDFTLTISSLQPEDFATYYCQEKDNFGQGTKLEIK
modifications: Synthetic antibody
inhibition of LILRB3 signaling (MLL-AF9 AML cells; FIG. 7b): cannot inhibit LILRB3 signaling
progress of AML with B3-FL and with B3del ICD [3]: suppresses the progresses of both AML with B3-FL and AML with B3del ICD with similar efficacies
